Variants at the floor of the assay were thinned out.
How the values were obtained:
[1] = test system: biotinyl-Trp-oxazolone; experiment: self-aminoacylation, catalytic enhancement (BWO) (fold over background); higher = more active; k-Seq, kA / k0A0; sequences stand for … in GGGAAUGGAUCCACAUCUACGAAUUC…UUCACUGCAGACUUGACGAAGCUG
How it was run: (§1)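 Each biotinyl-aminoacyl-oxazolone, at 2–1250 μM, was incubated with mutagenized RNA pools (0.43 μM) carrying a 21-nt variable region. The 50 μL reactions contained HEPES/NaCl/KCl/MgCl2/CaCl2 buffer with 5% acetonitrile at pH 6.9–7.0 and ran for 90 minutes at room temperature. After streptavidin capture, RNA was measured by qPCR in triplicate and by Illumina sequencing, and catalytic enhancement was calculated as median kA over the uncatalyzed rate from a pseudo-first-order fit of per-sequence fraction reacted.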

[2] = test system: biotinyl-Phe-oxazolone; experiment: self-aminoacylation, catalytic enhancement (BFO) (fold over background); higher = more active; k-Seq, kA / k0A0; sequences stand for … in GGGAAUGGAUCCACAUCUACGAAUUC…UUCACUGCAGACUUGACGAAGCUG
How it was run: as §1

[3] = test system: biotinyl-Val-oxazolone; experiment: self-aminoacylation, catalytic enhancement (BVO) (fold over background); higher = more active; k-Seq, kA / k0A0; sequences stand for … in GGGAAUGGAUCCACAUCUACGAAUUC…UUCACUGCAGACUUGACGAAGCUG
How it was run: as §1

[4] = test system: biotinyl-Met-oxazolone; experiment: self-aminoacylation, catalytic enhancement (BMO) (fold over background); higher = more active; k-Seq, kA / k0A0; sequences stand for … in GGGAAUGGAUCCACAUCUACGAAUUC…UUCACUGCAGACUUGACGAAGCUG
How it was run: as §1

[5] = test system: biotinyl-Ile-oxazolone; experiment: self-aminoacylation, catalytic enhancement (BIO) (fold over background); higher = more active; k-Seq, kA / k0A0; sequences stand for … in GGGAAUGGAUCCACAUCUACGAAUUC…UUCACUGCAGACUUGACGAAGCUG
How it was run: as §1

[6] = test system: biotinyl-Leu-oxazolone; experiment: self-aminoacylation, catalytic enhancement (BLO) (fold over background); higher = more active; k-Seq, kA / k0A0; sequences stand for … in GGGAAUGGAUCCACAUCUACGAAUUC…UUCACUGCAGACUUGACGAAGCUG
How it was run: as §1

Sequence | self-aminoacylation [1] | self-aminoacylation [2] | self-aminoacylation [3] | self-aminoacylation [4] | self-aminoacylation [5] | self-aminoacylation [6]
CGACACUUCAAGUAAUCGGUC [Fam1B.1 aminoacylation ribozyme variant] | 2.28 | 3.36 | 1.47 | 1.5 | 1.69 | 1.16
AUUUCCCUGGUCAACGAGUGA [Fam2.1 aminoacylation ribozyme variant] | 8.23 | 42.4 | 3.91 | 6.93 | 3.9 | 6.99
CUACUUCAAAUAAUCGGUGUG [Fam1A.1 aminoacylation ribozyme variant] | 2.4 | 3.23 | 0.826 | 0.983 | 0.826 | 1
AUUGCCUUGGUCAUCGAGUGA [Fam2.1 aminoacylation ribozyme variant] | 8.73 | 48.9 | 4.83 | 8.02 | 4.46 | 8.79
CUACUUGAAACAAUCUGUCUG [Fam1A.1 aminoacylation ribozyme variant] | 0.496 | 0.472 | 0.657 | 0.747 | 0.655 | 0.636
CUACUUCUAAUAAUCGGUCUG [Fam1A.1 aminoacylation ribozyme variant] | 0.774 | 1.02 | 0.792 | 0.699 | 0.776 | 0.63
AUUACCCUGGUCAGCGAGUGA [Fam2.1 aminoacylation ribozyme variant] | 5.36 | 16.6 | 3.01 | 4.42 | 2.92 | 4.71
AAGUUUGCUAAAAGUCUCAAG [Fam3.1 aminoacylation ribozyme variant] | 1.45 | 4.24 | 0.996 | 1.24 | 1.11 | 0.875
CUACUGCAAACAAUUGGUCUG [Fam1A.1 aminoacylation ribozyme variant] | 0.956 | 1.18 | 1.07 | 0.966 | 1.19 | 0.823
CUACUUCAAAUAAUCGCUCUG [Fam1A.1 aminoacylation ribozyme variant] | 1.23 | 2.37 | 0.637 | 0.562 | 0.6 | 0.583
AUUGCCCUGGUCACCGAGUGA [Fam2.1 aminoacylation ribozyme variant] | 9.72 | 70 | 4.68 | 9.41 | 3.77 | 10.8
AUUACCCUCGUCAACGAGUGA [Fam2.1 aminoacylation ribozyme variant] | 2.82 | 5.53 | 2.06 | 3.05 | 1.89 | 3
CGACUUCUAACAAUCGGUCUG [Fam1A.1 aminoacylation ribozyme variant] | 0.591 | 0.961 | 0.931 | 0.936 | 0.905 | 0.917
CUUUCCCUGGUCAUCGAGUGA [Fam2.1 aminoacylation ribozyme variant] | 10.6 | 7.03 | 5.04 | 8.78 | 4.62 | 8.95
AUUCAUCUACGUCAUCGGGUG [Fam2.2 aminoacylation ribozyme variant] | 7.17 | 53 | 3.82 | 6.12 | 3.69 | 8.74
AAGUUUGCAAAAAGUCGCAAG [Fam3.1 aminoacylation ribozyme variant] | 0.831 | 1.72 | 0.733 | 1.07 | 0.902 | 0.938
AUUGCCCUGGUCAUCUAGUGA [Fam2.1 aminoacylation ribozyme variant] | 10.3 | 70.6 | 4.24 | 8.83 | 3.81 | 8.79
AUUCACGUAGGUCAUCGGGUA [Fam2.2 aminoacylation ribozyme variant] | 3.66 | 21 | 3.72 | 3.16 | 2.9 | 2.95
CUACACCUAGGUCAUCGGGUG [Fam2.2 aminoacylation ribozyme variant] | 2.08 | 3.13 | 1.72 | 2.27 | 1.72 | 2.12
UUUCAACUAGGUCAUCGGGUG [Fam2.2 aminoacylation ribozyme variant] | 5.22 | 35.7 | 3.67 | 5.1 | 3.58 | 5.6
CCAAACUUCAAGCAAUCGGUC [Fam1B.1 aminoacylation ribozyme variant] | 15.6 | 30.1 | 1.26 | 1.02 | 1.19 | 1.41
AAGUUUGCUAAUAGUCCCGAG [Fam3.1 aminoacylation ribozyme variant] | 2.65 | 1.54 | 1.27 | 1.28 | 1.22 | 1.31
AUUACCCGGGUCAUCGAGCGA [Fam2.1 aminoacylation ribozyme variant] | 1.55 | 1.09 | 2.18 | 1.97 | 2.08 | 2.22
CUACUUCAAACAAGCGGCCUG [Fam1A.1 aminoacylation ribozyme variant] | 1.68 | 0.592 | 1.83 | 1.32 | 2.41 | 2.08
CCACAAUUAAAGCAAUCGGUC [Fam1B.1 aminoacylation ribozyme variant] | 0.66 | 0.833 | 1.13 | 0.88 | 1.13 | 0.881
AACUUUGCUAAUAGUGGCAAG [Fam3.1 aminoacylation ribozyme variant] | 1.11 | 1.37 | 0.919 | 0.764 | 1.07 | 1.44

Sequence | self-aminoacylation [1] | self-aminoacylation [2] | self-aminoacylation [3] | self-aminoacylation [4] | self-aminoacylation [5] | self-aminoacylation [6]
AUCACCCUGGUCAGCGAGUGA [Fam2.1 aminoacylation ribozyme variant] | 10.5 | 38.2 | 4.3 | 8.22 | 4.13 | 8.3
CAGCUUGCUAAUAGUCGCAAG [Fam3.1 aminoacylation ribozyme variant] | 1.72 | 2.54 | 1.86 | 1.72 | 1.82 | 1.89
AUUACCCUGUUCAUGGAGUGA [Fam2.1 aminoacylation ribozyme variant] | 11.8 | 62.8 | 5.28 | 11.1 | 5.12 | 11.4
AAAUUGGCUAAUAGUCGCAAG [Fam3.1 aminoacylation ribozyme variant] | 3.11 | 2.72 | 2.05 | 1.84 | 2.32 | 2.05
CUACUUCAAACAAACGGCCUG [Fam1A.1 aminoacylation ribozyme variant] | 0.967 | 0.719 | 1.13 | 1.01 | 1.38 | 1.18
AUUAACCUAGGUCAUUGGGUG [Fam2.2 aminoacylation ribozyme variant] | 2.85 | 15.2 | 2.28 | 2.88 | 1.93 | 3.23
CCACACUUUAAGCAAUCGUUC [Fam1B.1 aminoacylation ribozyme variant] | 0.575 | 0.911 | 0.849 | 0.566 | 0.669 | 0.543
AUUACCCUGCUGAUCGAGUGA [Fam2.1 aminoacylation ribozyme variant] | 2.77 | 10.4 | 1.67 | 2.68 | 1.93 | 2.87
AUUAGCCUGGUCAUCUAGUGA [Fam2.1 aminoacylation ribozyme variant] | 6.32 | 19.2 | 2.98 | 4.79 | 3.39 | 5.06
AUGCACCUAGGUCAUCGGCUG [Fam2.2 aminoacylation ribozyme variant] | 2.5 | 11 | 2.2 | 2.3 | 1.99 | 1.83
CUUCUUCAAACAAUCGGUCUU [Fam1A.1 aminoacylation ribozyme variant] | 7.08 | 13.4 | 0.925 | 0.814 | 0.878 | 0.997
CCACACUUCAAUCAAUCGGUU [Fam1B.1 aminoacylation ribozyme variant] | 5.87 | 7.61 | 1.21 | 1.16 | 1.47 | 1.34
UUUCACCUAAGUCAUCGGGUG [Fam2.2 aminoacylation ribozyme variant] | 8.11 | 51.6 | 5.74 | 7.38 | 5.08 | 9.35
AAGUUUGCUAAUUGUGGCAAG [Fam3.1 aminoacylation ribozyme variant] | 0.773 | 0.701 | 0.817 | 0.688 | 0.735 | 0.988
CUAAUUCAAACAAUUGGUCUG [Fam1A.1 aminoacylation ribozyme variant] | 0.572 | 0.608 | 0.687 | 0.776 | 0.839 | 0.744
CUAAUUCAAACAAUCAGUCUG [Fam1A.1 aminoacylation ribozyme variant] | 1.44 | 3.65 | 0.772 | 0.702 | 0.659 | 0.674
CAACACUUGAAGCAAUCGGUC [Fam1B.1 aminoacylation ribozyme variant] | 0.696 | 0.601 | 0.828 | 0.731 | 0.911 | 0.842
AUUACUCUGGUCAUCGAGUAA [Fam2.1 aminoacylation ribozyme variant] | 2.27 | 1.42 | 1.79 | 2.23 | 2.21 | 1.92
CCACACUUCAAGCAACCGGAC [Fam1B.1 aminoacylation ribozyme variant] | 0.606 | 0.734 | 1.07 | 0.839 | 1.15 | 0.602
CUACUUCAAACGAUCGAUCUG [Fam1A.1 aminoacylation ribozyme variant] | 0.354 | 0.425 | 0.584 | 0.47 | 0.55 | 0.485
AUUCACCGAGGUCAGCGGGUG [Fam2.2 aminoacylation ribozyme variant] | 6.61 | 38.8 | 4.67 | 5.57 | 5.26 | 6.67
AUGACCCUGGUCGUCGAGUGA [Fam2.1 aminoacylation ribozyme variant] | 0.916 | 4.65 | 0.888 | 1.25 | 1.01 | 1.38
AUUACCCUGGUAAUCCAGUGA [Fam2.1 aminoacylation ribozyme variant] | 10.7 | 51.9 | 4.36 | 8.47 | 4.07 | 8.77
AUUACCCUGGCCAUCUAGUGA [Fam2.1 aminoacylation ribozyme variant] | 4.43 | 28.6 | 2.79 | 4.68 | 2.93 | 5.69
AUUACCCUGGCAAUCGAGUGA [Fam2.1 aminoacylation ribozyme variant] | 5.92 | 28.2 | 3.02 | 4.83 | 2.78 | 5.38
